Literature values as cited in PMC6661118.
Read-outs that look alike come from different tables or passages of the source.

Experiments:
MDM2 (Homo sapiens) [1] = target: MDM2 (Homo sapiens) (UniProt Q00987)
MDM2 (Homo sapiens) [2] = target: MDM2 (Homo sapiens) (UniProt Q00987); remark: listed apart in the source

Chain of MDM2 (Homo sapiens) (Q00987 whole entry): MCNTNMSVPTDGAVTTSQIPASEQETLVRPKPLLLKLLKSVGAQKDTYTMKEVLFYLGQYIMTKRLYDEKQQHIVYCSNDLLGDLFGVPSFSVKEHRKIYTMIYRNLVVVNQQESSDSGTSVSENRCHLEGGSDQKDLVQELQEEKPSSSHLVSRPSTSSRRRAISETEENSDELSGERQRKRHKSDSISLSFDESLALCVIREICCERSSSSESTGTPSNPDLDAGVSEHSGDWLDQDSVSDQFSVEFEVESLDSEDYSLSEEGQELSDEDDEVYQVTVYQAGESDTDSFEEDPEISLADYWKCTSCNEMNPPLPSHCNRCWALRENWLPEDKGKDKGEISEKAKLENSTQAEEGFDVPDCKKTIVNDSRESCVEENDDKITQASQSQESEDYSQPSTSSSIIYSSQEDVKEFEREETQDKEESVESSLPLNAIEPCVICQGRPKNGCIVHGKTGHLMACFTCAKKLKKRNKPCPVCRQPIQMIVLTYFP

| Substance | Kd (MDM2 (Homo sapiens) [1]) | Kd (MDM2 (Homo sapiens) [2]) |
| --- | --- | --- |
| p53 (from UniProt P04637) | 410 nM | – |
| p53-SAH-8 (from UniProt P04637) | – | 55 nM |
